Data published in the DeepSol protein solubility set.

Test: soluble on expression in E. coli; label from the status in PepcDB or PDB records

Sequence | soluble on expression in E. coli
GGGGGGMADLFSTVQEKVAGKDVKIVFPEGLDERILEAVSKLAGNKVLNPIVIGNENEIQAKAKELNLTLGGVKIYDPHTYEGMEDLVQAFVERRKGKATEEQARKALLDENYFGTMLVYKGLADGLVSGAAHSTADTVRPALQIIKTKEGVKKTSGVFIMARGEEQYVFADCAINIAPDSQDLAEIAIESANTAKMFDIEPRVAMLSFSTKGSAKSDETEKVADAVKIAKEKAPELTLDGEFQFDAAFVPSVAEKKAPDSEIKGDANVFVFPSLEAGNIGYKIAQRLGNFEAVGPILQGLNMPVNDLSRGCNAEDVYNLALITAAQAL | soluble
GSHMHAKVGDYLVVKGTTTERHDQHAEIIEVRSADGSPPYVVRWLVNGHETTVYPGSDAVVVTATEHAEAEKRAAARAGHAAT | soluble
MSLAQFVDWDLAAATAGTLGKTGPRVSYVEATAVVGDLRQLTDEAAEHVADFTGLRSQVSHPPVQVVDRRDWAATNVAGLREMIGPLVGRLAGDKQPSVLTEAIGSRITGVQAGTVLAYLSGRVLGQYEVFSGEPGQLLLIAPNIVEVERKLAADPRDFRMWVCLHEVTHRTQFTAVPWLRAYFLGEVQAFVDASSSGGEPLVERLRRGITVLADAVREPAGRTSVLDIVQTPAQKAVLDRLTALMTLLEGHAEFVMDGVGPQVIPSVERIRASFNRRRESGNPLEKALRRLLGVEVKLRQYAEGRSFVHGVVERVGMEGFNRVFASPLTLPRLAELSDPDAWVARVHGPAGPLPAGDEGHHHHHH | soluble
MGSDKIHHHHHHMNMPNSFSNSHIYLGNVMHRRFSPKKHSFDYRLFMLALDVADVEKAQGGFGVFGFSWYRPLRFVETDYLKESIKDNSKDNLAGDPRSLSHRIKNKVHELAGYADIKRIVMLVQVRCFGIYFSPANFYFCYDQDDKCTQMLAEVSNTPWNERHYYLVDLLKEEGDKTTKKMFQVSPFMDLAMTYFWQVTPPCNGNDKLLVKIENKRVNDESGTVSKLFDASLVMRRKPFTKASLLRIWGQLPVMTMKVVVTIYWQALKLFIKRVPFIGYQKPS | not soluble
MASIFESPELIGAFIGEVEEQLQLLENNVVELEKNGGTAEVVQELFRAAHTLKGSSATMGFEKMKTLTHEMENVLDKIRNGLLEISRPVIDVLFECLDCLNMLKEDFVSDSNNVKTEITPVITKLKEISSENETNNQNSDSDKAENLETGRREQPIFVLDEKQQEQINQALGIGQNVLVCEVEILEDSQMKSVRACLIMNFLNEWGTVINMVPNVMEIPIDSDVGKVAFLVVTQMSADELRQKVQNDLMDIKEVRVFPYFIQNSISQTKDGETGVRDKDNSSGVKTATEEKRVVHTVRIDVDRLERMMDLVGELVIEQIRIAQVANNLYNQYPSDETVDDLIGISNRVSILINELQEGIMKTRMIPVQQLFSRFPRMVRDLSVSLNKEVNLVLEGGETEIDRTIMEEMSDPLIHLIRNAIDHGIENPEIRKKLGKPEQGTLRVTALPEDSNVIITVEDDGAGIDPQEIKQSAIKKRIVTEQEANNMTEQQLINLIFQTGFSTSQKVSDVSGRGVGMDIVKTHIEKLNGIIDVETCAGSGTKFIIKLPIKLPLTLAILKGLLVKISNETYALPMNNVVEIVRKPKNEIESINGQAVAVIRDRAIPLIWLHDYFGIPRGNERKNTLIVLLGIAEKRFGLVVDELIGNQEIVVTNLGSYIGKVEGISGATILGDRSVACILDVVGIAKIVNSRKVSRIDVEYSKQ | not soluble
SPEALRIGYQKGSIGMVLAKSHQLLEKRYPESKISWVEFPAGPQMLEALNVGSIDLGSTGDIPPIFAQAAGADLVYVGVEPPKPKAEVILVAENSPIKTVADLKGHKVAFQKGSSSHNLLLRALRQAGLKFTDIQPTYLTPADARAAFQQGNVDAWAIWDPYYSAALLQGGVRVLKDGTDLNQTGSFYLAARPYAEKNGAFIQGVLATFSEADALTRSQREQSIALLAKTMGLPAPVIASYLDHRPPTTIKPVNAEVAALQQQTADLFYENRLVPKKVDIRQRIWQPTQLEGKQLEFRVPGNENLYFQ | soluble
MSFGKIVVFLVLVLVQLIHCTRFTAPSLDRTIYYRNTPPDPFGHYSFEFQTTNGITTKGAGNENGAVGVVQFVSPEGIPVTFSYVADANGYQPTGDHIPAIPLHVIRQLEYIRTHPPVDEIRSRRWLEHHHHHH | not soluble
DRHVDTHSEVLIFEVIPADDFLQQQLQITVQDRVWHVKRVRYRKQKPMALEETWMPLALFPDLTWQVMENSKYHFIEEVKKMVIDRSEQEIIPLMPTEEMSRLLNISQTKPILEKVSRGYLVDGRVFEYSRNAFNTDDYK | not soluble
MKRIGVLTSGGDSPGMNAAIRSVVRKAIYHGVEVYGVYHGYAGLIAGNIKKLEVGDVGDIIHRGGTILYTARCPEFKTEEGQKKGIEQLKKHGIEGLVVIGGDGSYQGAKKLTEHGFPCVGVPGTIDNDIPGTDFTIGFDTALNTVIDAIDKIRDTATSHERTWVIEVMGRHAGDIALYSGLAGGAETILIPEADYDMNDVIARLKRGHERGKKHSIIIVAEGVGSGVDFGRQIQEATGFETRVTVLGHVQRGGSPTAFDRVLASRLGARAVELLLEGKGGRCVGIQNNQLVDHDIAEALANKHTIDQRMYALSKELSI | soluble
MGSDKIHHHHHHMLTTCKSVLKLPYLEKIKVVAGEKGLNRIITWVQVVEYPEYSKWLKGGELILISGIAIKNNINSLVNFIRDINSRSLSGIVISIGPYIKEIPKEVIEIGNQLDFPIFEIPFEVKFIDVSQSICKAIFANKVNQESMENFMKDIIFRDFTFSEDILSRAVAYGYNPKTKYISFVVELHNEKDMLECDLKTKQYIEQIVIEVLGEWNKRSIHIMQYNSIILMLPKNEKRTIKNIAMNIIEEIISKAKNTSVNIGVGGEFSELRDFKISVSEAHRCLKVLKLNNDNNTVISYDELGIYKLFFQMDNLEEMKKFYLDVLKKLIDYDSKNTTELMNTLEMYIKESTNINRTAEKLFIHRNTLKYRIRRIEEITKCSLKDVNVLFNFDTALKIKKFLTMENAV | not soluble
GALGVVDEVHAGKEIGLQIYSLSQELYKGDVAANLRKVKDMGYSKLELAGYGKGAIGGVPMMDFKKMAEDAGLKIISSHVNPVDTSISDPFKAMIFKYSKEVTPKIMEYWKATAADHAKLGCKYLIQPMMPTITTHDEAKLVCDIFNQASDVIKAEGIATGFGYHNHNMEFNRVATKEQQEKVKGNPFAAFMKVGDQIYDLMLKDTDPSKVYFEMDVYWTVMGQNDPVEYMQKHPDRIKVLHIKDRAVFGQSGMMNFEMIFKQMYANGIKDYFVELEQMPDGRTQFAGVKDCADYLIKAPFVK | soluble
MSEFTQDTVQKPIDELVTWVKQYDFSLNLPTERLAFLLAIAVLSNERFDEELGEGELHDAFAIVTRLFAESGEASAFRANNAINDLVKQRLLSRFTSEMTEGASIYRLTPLAIGITDYYVRHREFSKLKLSIQLSMVADEMAKAVESAQQGGSVAHWRKNVFGVLKYSVSEIFDRIDLNQRVMDEQQQSVKEQIADLLNKDWRDAINNCEALLSETSATLRELQDTLQAAGDELQTQILDIQECVYGDLELDFIEETLSALQMKLDRITSWGQQSIDLWIGYDRHVHKFIRTAIDMDQNRAFSQRLRQSMNDYFEQPWYLTYADAERLSDLRDETLTLRDEEVTGHVPTEVEYEELQQVNDELAQRIGDMLKVHKEQGAAIDLALVLRDYLASHPRTHHFDLARMVVDQAVRLGYSESDYRAIQPDWTAINDFGAKVQANVIDRYLEHHHHHH | soluble
MSTCSDESCDKECPLCMETLELDDINFYPCKCEYQICRFCWHRIRTDENGLCPACRQPYPEDPVNFKPMTTDDVRKHKDEQRLKKQAEKLKLSDARQYLCNYRVLQKNLVYVVGLSPRVADPEILKKNEYFGRYGKIQKIVTSATPSLPAPHLPPSHTAYVTYKRVDDALRAIQGVHNSMLDGRLVKASLGTTKYCSSFLNSRKCFKPVGECMYLHENAEAEISFTKDDMHLGKHTEYEKRLIESMNSRPPPPQSTLASQLDKILAPTSNSPRRYLEDDSDTVDDVERTGSAIHMCADDPDDDDADSTNTSNSIDDPAPSNPADETVNSRRSNQTARERQWSERDEISVAPSNTPPTDPEGNENEFEEDIHRNDVSDLMSKLDVNDDRLARTSFSENDYLGIPAPAKHQEAPAPLMQWEALLGLSSPSAQSTIVEPSSLFPTFKMDSGFNSQSLFGTHTSSTPSFRREASPPPGLARFNSDDDLGFDPFTESSKGLSALLQEEQEQIPPHNSASNHTLDVLKQLFGQLPEQRQSTQQHPQHLQSSHQQHPLQQNQDQHHSFLHQLHAQQQHQQQQFAADMNRQQDYMYSRLMSQQQQQSQQQRQFDSTPGFSHPFGSMQQQQQSSQQQQHQSQSSQSSSLLQDLFNRQQQQHQAQQQAQQHQQQQMYAGINSYMYNDMLMPRVPFGMAPPPGLGGPSTNRSSTTQQAPPHMTQQSQQQQQQQQSSMGLFGMGGHQSMMQDHQSQQPQSAQDAFKALLPNVNVRFMDDNSMSRWSHENSLRSSAVPPPPGFSSVMNR | not soluble
MGHHHHHHSHMALLVRVLRNQTSISQWVPVCSRLIPVSPTQGQGDRALSRTSQWPQMSQSQACGGSEQIPGIDIQLNRKYHTTRKLSTTKDSPQPVEEKVGAFTKIIEAMGFTGPLKYSKWKIKIAALRMYTSCVEKTDFEEFLLRCQMPDTFNSWFLITLLHVWMCLVRMKQEGRSGKYMCRIIVHFMWEDVQQRGRVMGVNPYILKKNMILMTNHFYAAILGYDEGILSDDHGLAAALWRTFFNRKCEDPRHLELLVEYVRKQIQYLDSMNGEDLLLTGEVSWRPLVEKNPQSILKPHSPTYNDEGL | not soluble
MSAVKKQRIDLRLTDDDKSMIEEAAAISNQSVSQFMLNSASQRAAEVIEQHRRVILNEESWTRVMDALSNPPSPGEKLKRAAKRLQGM | soluble
VRRVPLFENMDERLLDAICERLKPCLFTEKSYLVREGDPVNEMLFIIRGRLESVTTDGGRSGFYNRSLLKEGDFCGDELLTWALDPKSGSNLPSSTRTVKALTEVEAFALIADELKFVASQFRR | soluble
ERYGALAVPVGPGNLDIQTTFLVDLQSTVVCCTASMGLLLAEEVQRRNLRDKIAVRKVILGAERSSEAILAKIRECLGAESVHDITGLTEVYGPGTGLSCGVPGADGSI | not soluble
MSLNSPIQAVIFDWAGTIVDFGSFAPTSIFVEAFKQGFDFEISLAEAREPMGLGKWQHIEAVGKLPTVAQRWQKQFGRPMQASDIDAIYAAFMPLQIAKVADHAAPIPHSLEVVEQIRSRGIKIGSCSGYPRQVMDVLIAAAADYGYRPDYVVATDDLAQGGRPAPFMALKNVIELGVTDVRACVKVDDALPGIEEGHNAGMWTVGLLLSGNEAGLTLEEYQHADDQTLQAARERAQAKLQQAKPHYLIDTVADLPAVLAQIEQRLLAGEREGHHHHHH | soluble
TTYKHSLQDLTAQRSLGAIPFAGRYRLIDFMLSNMVNADIRSVAIFPKYRYRSLMDHLGAGKEWDLHRKKDGLFFFPSPHLHHEYDEFGSFRQFSDHLDYFHRSTQQYAVISNSHTVCNIQFQYVLKRHQEVGCDVTEVFQDGQSLQIYIMSTTLLKDLIYGHSEKGYKTIQEAVEKESSALTICPYEYSGYAAVIDSVEKYYTHSMELIQPRFWQQVFLPQQPIYTKVKDEPPTKYGKHSTVKNSLVANGCVLEGEVENCILFRAVHVGKGTKLKNCIIMQKTQIGEDCLLEQVISDKDVKIGKATEAAGTAEQPLVLRKGLVQGE | not soluble
MSLKNLITKLENEERLNQEEANALWDLDLFTLGKYAHKKRTKLHGKKVYFNINRHINPTNICADTCKFCAFSAHRKNPNPYLMTHEEIMKIVDETVKRETKEVHIVSAHNKDTTWQWYLEIFKMIKEKYPNLHVKAMTAAEIDFLHRRFKMSYEEVIEKMLEYGVDSMPGGGAEIFDEEVRKKICHGKVSSENWLKIHKLWHEKSKQSNATMLFGHIEERHHRIDHMLRLRDLQDQTGGFNAFIPLVWQRDKSFIQTDKIMDSEEILKTIAISRLVLDNIKNIKAYWATMTLNLAMVAQEFGANDLDGTIEKESIQSAGGAKSAKGTSLKTFIDMIKTSNLIPVERDSLYNELKTYEGHHHHHH | not soluble
